Values quoted from earlier work in paper PMC9971567.

Target: Intimin C terminus (Escherichia coli) (UniProt P19809)
Sequence of UniProt P19809 (P19809 660-939): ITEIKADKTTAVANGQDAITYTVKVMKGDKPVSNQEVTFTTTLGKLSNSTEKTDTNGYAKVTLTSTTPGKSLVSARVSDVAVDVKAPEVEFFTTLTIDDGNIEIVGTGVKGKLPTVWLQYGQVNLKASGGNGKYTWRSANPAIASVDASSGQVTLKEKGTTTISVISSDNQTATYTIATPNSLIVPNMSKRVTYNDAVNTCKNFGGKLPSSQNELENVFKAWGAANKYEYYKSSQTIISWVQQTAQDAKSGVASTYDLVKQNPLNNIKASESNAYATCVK

Tir central loop (from UniProt B7UM99)
Kd: 10 nM
